The text below walks through data of patent US11628159B2, “Cell-protective compounds and their use” (ETH ZURICH, priority 2017, dated 2023).

Usually IC50 stands for the concentration needed to halve the response being measured.

This assay deals with T1, GRK2 (Homo sapiens, UniProt P25098).
T1 construct: fused on or other part: hexahistidine tag
T1 sequence (P25098 1-669 limits assumed): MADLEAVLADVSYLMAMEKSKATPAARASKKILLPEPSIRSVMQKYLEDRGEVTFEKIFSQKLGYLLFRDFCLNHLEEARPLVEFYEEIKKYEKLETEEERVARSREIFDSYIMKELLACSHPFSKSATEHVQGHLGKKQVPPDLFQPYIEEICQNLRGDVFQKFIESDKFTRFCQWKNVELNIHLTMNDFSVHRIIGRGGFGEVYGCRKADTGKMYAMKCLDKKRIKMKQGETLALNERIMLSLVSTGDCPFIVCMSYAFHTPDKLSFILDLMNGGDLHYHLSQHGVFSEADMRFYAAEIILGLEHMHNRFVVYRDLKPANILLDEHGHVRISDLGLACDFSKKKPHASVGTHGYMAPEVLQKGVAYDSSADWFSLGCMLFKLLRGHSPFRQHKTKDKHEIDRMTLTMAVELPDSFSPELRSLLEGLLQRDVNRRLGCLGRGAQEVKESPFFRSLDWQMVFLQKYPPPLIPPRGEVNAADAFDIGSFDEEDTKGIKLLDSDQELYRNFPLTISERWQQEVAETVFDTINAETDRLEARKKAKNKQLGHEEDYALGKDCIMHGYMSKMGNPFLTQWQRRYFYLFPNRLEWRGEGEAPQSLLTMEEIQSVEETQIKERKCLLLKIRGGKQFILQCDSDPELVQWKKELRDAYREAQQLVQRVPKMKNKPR
Description: In vitro phosphorylation assay: GRK2-mediated phosphorylation of phosducin. It is filed as biochemical. The settings on record: n=6-7; read-out: IC50, inhibition of GRK2-induced phosducin phosphorylation. The text has this:
Recombinant human GRK2 protein and GRK2-S670A protein was expressed in and purified from Spodoptera frugiperda (Sf9) cells by the baculoviral expression system. The cDNAs encoding hexahistidine-tagged human GRK2 (ADRBK1) GRK2-S670A were subcloned into the pFastBac1 expression plasmid (INVITROGEN™, THERMO FISHER SCIENTIFIC®, Waltham, Mass., USA) using the Sal I/Hind III restriction sites, recombinant baculovirus was generated by the Bac-To-Bac Baculovirus expression system (THERMO FISHER SCIENTIFIC®, Waltham, Mass., USA). Sf9 cells were infected with recombinant baculoviruses at an MOI of 2-3, 48 h after infection cells were harvested by centrifugation, lysed with lysis buffer (300 mM NaCl, 50 mM HEPES, pH 7.5 supplemented with 1% NP40, 1 mM PMSF and protease inhibitor cocktail) and applied to Ni-NTA chromatography. After overnight incubation at 4° C., unbound proteins were removed by washing with lysis buffer (20× column volumes) followed by 1× column volume of 30 mM imidazole-containing lysis buffer. Bound GRK2 was eluted by 300 mM imidazole in lysis buffer, desalted by PD10 column chromatograpy, supplemented with 20% glycerol and stored at −80° C. for further use. […]

B1: RKIP: raf kinase inhibitor protein, a dual-specific GRK2 and Raf kinase inhibitor (protein, UniProt P30086 2-187, looked up)
Phosphatidylethanolamine-bindi …: PVDLSKWSGPLSLQEVDEQPQHPLHVTYAGAAVDELGKVLTPTQVKNRPTSISWDGLDSGKLYTLVLTDPDAPSRKDPKYREWHHFLVVNMKGNDISSGTVLSDYVGSGPPKGTGLHRYVWLVYEQDRPLKCDEPILSNRSGDHRGKFKVASFRKKYELRAPVAGTCYQAEWDDYVPKLYEQLSGK
In the case of B1, the IC50 was 950 nM.
